± gives the uncertainty stated by the source.
B1: Unconventional myosin-Ie, residues 1051 to 1108; numbered along this chain, Q12965 (parent)
chain: PQVPQCKALYAYDAQDTDELSFNANDIIDIIKEDPSGWWTGRLRGKQGLFPNNYVTKI

Variants of: B1
Experiment: abundance fitness (aPCA) (normalised: wild type 0, dead -1); higher = more abundant; growth selection in yeast, the domain comes from the species named
Details: Homo sapiens

In order of falling abundance fitness:
1. PQVPQCKALYAYDAQDTDELSFNANDIIDIIKQDPSGWWTGRLRGKQGLFPNNYVTKI [E33Q]  0.074 ± 0.087
2. PQVPQCKALYAYDAQDTDELSFNANDIIDIIKEEPSGWWTGRLRGKQGLFPNNYVTKI [D34E]  0.06 ± 0.06
3. PQVPQCKALYAYDAQDTDELSFNANDIIDILKEDPSGWWTGRLRGKQGLFPNNYVTKI [I31L]  0.001 ± 0.042
4. PQVPQCKALYAYDAQDTDELSFNANDIIDIIKMDPSGWWTGRLRGKQGLFPNNYVTKI [E33M]  -0.02 ± 0.086
5. PQVPQCKALYAYDAQDTDELSFNANDIIDIMKEDPSGWWTGRLRGKQGLFPNNYVTKI [I31M]  -0.051 ± 0.078
6. PQVPQCKALYAYDAQDTDELSFNANDIIDIVKEDPSGWWTGRLRGKQGLFPNNYVTKI [I31V]  -0.054 ± 0.034
7. PQVPQCKALYAYDAQDTDELSFNANDIITIIKEDPSGWWTGRLRGKQGLFPNNYVTKI [D29T]  -0.062 ± 0.039
8. PQVPQCKALYAYDAQDTDELSFNANDIIDICKEDPSGWWTGRLRGKQGLFPNNYVTKI [I31C]  -0.089 ± 0.064
9. PQVPQCKALYAYDAQDTDELSFNANDIISIIKEDPSGWWTGRLRGKQGLFPNNYVTKI [D29S]  -0.185 ± 0.055
10. PQVPQCKALYAYDAQDTDELSFNANDIIDIIKIDPSGWWTGRLRGKQGLFPNNYVTKI [E33I]  -0.185 ± 0.054
11. PQVPQCKALYAYDAQDTDELSFNANDIIDITKEDPSGWWTGRLRGKQGLFPNNYVTKI [I31T]  -0.2 ± 0.032
12. PQVPQCKALYAYDAQDTDELSFNANDIIDIIKCDPSGWWTGRLRGKQGLFPNNYVTKI [E33C]  -0.231 ± 0.041
13. PQVPQCKALYAYDAQDTDELSFNANDIIDIIKADPSGWWTGRLRGKQGLFPNNYVTKI [E33A]  -0.236 ± 0.042
14. PQVPQCKALYAYDAQDTDELSFNANDIIQIIKEDPSGWWTGRLRGKQGLFPNNYVTKI [D29Q]  -0.241 ± 0.067
15. PQVPQCKALYAYDAQDTDELSFNANDIIMIIKEDPSGWWTGRLRGKQGLFPNNYVTKI [D29M]  -0.243 ± 0.076
16. PQVPQCKALYAYDAQDTDELSFNANDIIDIYKEDPSGWWTGRLRGKQGLFPNNYVTKI [I31Y]  -0.25 ± 0.091
17. PQVPQCKALYAYDAQDTDELSFNANDIIDIEKEDPSGWWTGRLRGKQGLFPNNYVTKI [I31E]  -0.26 ± 0.055
18. PQVPQCKALYAYDAQDTDELSFNANDIIDIIKVDPSGWWTGRLRGKQGLFPNNYVTKI [E33V]  -0.26 ± 0.045
19. PQVPQCKALYAYDAQDTDELSFNANDIIDIIKDDPSGWWTGRLRGKQGLFPNNYVTKI [E33D]  -0.271 ± 0.05
20. PQVPQCKALYAYDAQDTDELSFNANDIINIIKEDPSGWWTGRLRGKQGLFPNNYVTKI [D29N]  -0.277 ± 0.098
21. PQVPQCKALYAYDAQDTDELSFNANDIIYIIKEDPSGWWTGRLRGKQGLFPNNYVTKI [D29Y]  -0.285 ± 0.096
22. PQVPQCKALYAYDAQDTDELSFNANDIIVIIKEDPSGWWTGRLRGKQGLFPNNYVTKI [D29V]  -0.303 ± 0.053
23. PQVPQCKALYAYDAQDTDELSFNANDIIWIIKEDPSGWWTGRLRGKQGLFPNNYVTKI [D29W]  -0.312 ± 0.068
24. PQVPQCKALYAYDAQDTDELSFNANDIIDIIKLDPSGWWTGRLRGKQGLFPNNYVTKI [E33L]  -0.343 ± 0.052
25. PQVPQCKALYAYDAQDTDELSFNANDIIIIIKEDPSGWWTGRLRGKQGLFPNNYVTKI [D29I]  -0.345 ± 0.15
26. PQVPQCKALYAYDAQDTDELSFNANDIIDIAKEDPSGWWTGRLRGKQGLFPNNYVTKI [I31A]  -0.346 ± 0.035
27. PQVPQCKALYAYDAQDTDELSFNANDIIDIDKEDPSGWWTGRLRGKQGLFPNNYVTKI [I31D]  -0.359 ± 0.073
28. PQVPQCKALYAYDAQDTDELSFNANDIIDIIKKDPSGWWTGRLRGKQGLFPNNYVTKI [E33K]  -0.368 ± 0.14
29. PQVPQCKALYAYDAQDTDELSFNANDIIDIIKFDPSGWWTGRLRGKQGLFPNNYVTKI [E33F]  -0.376 ± 0.17
30. PQVPQCKALYAYDAQDTDELSFNANDIIRIIKEDPSGWWTGRLRGKQGLFPNNYVTKI [D29R]  -0.387 ± 0.032
31. PQVPQCKALYAYDAQDTDELSFNANDIIDIIKSDPSGWWTGRLRGKQGLFPNNYVTKI [E33S]  -0.398 ± 0.045
32. PQVPQCKALYAYDAQDTDELSFNANDIIDIFKEDPSGWWTGRLRGKQGLFPNNYVTKI [I31F]  -0.462 ± 0.091
33. PQVPQCKALYAYDAQDTDELSFNANDIIDIKKEDPSGWWTGRLRGKQGLFPNNYVTKI [I31K]  -0.478 ± 0.044
34. PQVPQCKALYAYDAQDTDELSFNANDIIDIWKEDPSGWWTGRLRGKQGLFPNNYVTKI [I31W]  -0.479 ± 0.042
35. PQVPQCKALYAYDAQDTDELSFNANDIIDIQKEDPSGWWTGRLRGKQGLFPNNYVTKI [I31Q]  -0.48 ± 0.08
36. PQVPQCKALYAYDAQDTDELSFNANDIIKIIKEDPSGWWTGRLRGKQGLFPNNYVTKI [D29K]  -0.555 ± 0.12
37. PQVPQCKALYAYDAQDTDELSFNANDIIDIIKNDPSGWWTGRLRGKQGLFPNNYVTKI [E33N]  -0.576 ± 0.049
38. PQVPQCKALYAYDAQDTDELSFNANDIIDISKEDPSGWWTGRLRGKQGLFPNNYVTKI [I31S]  -0.58 ± 0.05
39. PQVPQCKALYAYDAQDTDELSFNANDIIDIIKPDPSGWWTGRLRGKQGLFPNNYVTKI [E33P]  -0.751 ± 0.21
40. PQVPQCKALYAYDAQDTDELSFNANDIIDIIKHDPSGWWTGRLRGKQGLFPNNYVTKI [E33H]  -0.758 ± 0.45
41. PQVPQCKALYAYDAQDTDELSFNANDIIDIIKWDPSGWWTGRLRGKQGLFPNNYVTKI [E33W]  -0.819 ± 0.21
42. PQVPQCKALYAYDAQDTDELSFNANDIIDIPKEDPSGWWTGRLRGKQGLFPNNYVTKI [I31P]  -0.87 ± 0.15
43. PQVPQCKALYAYDAQDTDELSFNANDIIDINKEDPSGWWTGRLRGKQGLFPNNYVTKI [I31N]  -0.891 ± 0.45
44. PQVPQCKALYAYDAQDTDELSFNANDIIDIIKGDPSGWWTGRLRGKQGLFPNNYVTKI [E33G]  -0.935 ± 0.14
45. PQVPQCKALYAYDAQDTDELSFNANDIIDIIKEIPSGWWTGRLRGKQGLFPNNYVTKI [D34I]  -0.939 ± 0.32
46. PQVPQCKALYAYDAQDTDELSFNANDIIPIIKEDPSGWWTGRLRGKQGLFPNNYVTKI [D29P]  -1.03 ± 0.41

— the Human Domainome abundance scans (Beltran et al. 2025)
